From patent US20200179497

Molecular target: IVIg (Octagam)

B1: BX1001865 (IdeS lacking tag, produced to GMP standard) (protein)
chain: DSFSANQEIRYSEVTPYHVTSVWTKGVTPPANFTQGEDVFHAPYVANQGWYDITKTFNGKDDLLCGAATAGNMLHWWFDQNKDQIKRYLEEHPEKQKINFNGEQMFDVKEAIDTKNHQLDSKLFEYFKEKAFPYLSTKHLGVFPDHVIDMFINGYRLSLTNHGPTPVKEGSKDPRGGIFDAVFTRGDQSKLLTSRHDFKEKNLKEISDLIKKELTEGKALGLSHTYANVRINHVINLWGADFDSNGNLKAIYVTDSDSNASIGMKKYFVGVNSAGKVAISAKEIKEDNIGAQVLGLFTLSTGQDSWNQTN
enzyme concentration at which cleavage starts on SDS-PAGE: IdeS, which starts the cleavage at 0.9 ng/ml (lane 6) and has a dominating scIgG band at 1.9 ng/ml (lane 5)

B2: pCART203 (protein)
chain: MDDYQRNATEAYAKEVPHQITSVWTKGVTPPEQFTQGEDVIHAPYLAHQGWYDITKAFDGKDNLLCGAATAGNMLHWWFDQNKTEIEAYLSKHPEKQKIIFNNQELFDLKAAIDTKDSQTNSQLFNYFRDKAFPNLSARQLGVMPDLVLDMFINGYYLNVFKTQSTDVNRPYQDKDKRGGIFDAVFTRGDQTTLLTARHDLKNKGLNDISTIIKQELTEGRALALSHTYANVSISHVINLWGADFNAEGNLEAIYVTDSDANASIGMKKYFVGINAHGHVAISAKKIEGENIGAQVLGLFTLSSGKDIWQKLSGGGHHHHHH
cleavage efficacy on SDS-PAGE, fold vs IdeS: a 2 fold increased efficacy compared to IdeS | enzyme concentration at which IgG cleavage is seen on SDS-PAGE: demonstrates IgG cleavage at 0.5 ng/ml (lane 7)

B3: pCART208 (protein)
chain: MDDYQRNATEAYAKEVPHQITSVWTKGVTPPEQFTQGEDVIHAPYLAHQGWYDITKAFDGKDNLLCGAATAGNMLHWWFDQNKTEIEAYLSKHPEKQKIIIRNQELFDLKAAIDTKDSQTNSQLFNYFRDKAFPNLSARQLGVMPDLVLDMFINGYYLNVFKTQSTDVNRPYQDKDKRGGIFDAVFTRGDQTTLLTARHDLKNKGLNDISTIIKQELTEGRALALSHTYANVSISHVINLWGADFNAEGNLEAIYVTDSDANASIGMKKYFVGINAHGHVAISAKKIEGENIGAQVLGLFTLSSGKDIWQKLSGGGHHHHHH
cleavage efficacy of the 1st heavy chain on SDS-PAGE, fold vs IdeS: approximately a 4 fold increase in cleavage efficacy of the 1st heavy chain

B4: pCART124 (IdeS with additional N terminal methionine and histidine tag) (protein)
chain: MDSFSANQEIRYSEVTPYHVTSVWTKGVTPPANFTQGEDVFHAPYVANQGWYDITKTFNGKDDLLCGAATAGNMLHWWFDQNKDQIKRYLEEHPEKQKINFNGEQMFDVKEAIDTKNHQLDSKLFEYFKEKAFPYLSTKHLGVFPDHVIDMFINGYRLSLTNHGPTPVKEGSKDPRGGIFDAVFTRGDQSKLLTSRHDFKEKNLKEISDLIKKELTEGKALGLSHTYANVRINHVINLWGADFDSNGNLKAIYVTDSDSNASIGMKKYFVGVNSAGKVAISAKEIKEDNIGAQVLGLFTLSTGQDSWNQTNGGGHHHHHH
enzyme concentration at which cleavage starts on SDS-PAGE: IdeS, which starts the cleavage at 0.9 ng/ml (lane 6) and has a dominating scIgG band at 1.9 ng/ml (lane 5)
